In the supplement of paper PMC10567573:
± gives the standard deviation.

Assay: protein stability index of a GFP-peptide fusion (GPS, HEK-293T) (PSI 1-6); higher = more stable
[1] = treatment: DMSO, c terminus: a fixed tail appended
[2] = treatment: MLN4924 1 uM, 8 h, c terminus: a fixed tail appended
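Further: 24-mer peptide tiles fused after GFP, lentivirally expressed, FACS-sorted into six equal bins by GFP/DsRed ratio, decoded by Illumina sequencing, PSI is the read-weighted mean bin number.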

Sequence | protein stability index [1] | protein stability index [2] | protein stability index (treatment: DMSO, c terminus: native) | protein stability index (treatment: MLN4924 1 uM, 8 h, c terminus: native)
RNTKRDVTLEASRENSKPRAILKP [PPP2R2B] | 4.44 ± 0.47 | 4.79 ± 0.056 | – | –
FSDSSLIEDSQALHKRPKLDSEYY [LURAP1L] | 3.86 ± 0.35 | 3.9 ± 0.21 | – | –
SEIKNLERYMCSRFFIDFPHIEEQ [TENT5D] | 2.42 ± 0.15 | 2.22 ± 0.35 | – | –
TQRQYKEDESQSEEENDYRNLDAS [CEP70] | 5.41 ± 0.25 | 5.51 ± 0.6 | – | –
GSIGVWHYICPRLGGIGFSSCIVC [SLC6A17] | 2.58 ± 0.054 | 2.41 ± 1.2 | – | –
FFKGIDQDIERGVQSEIFLHESYC [LYSMD4] | 2.58 ± 0.27 | 2.35 ± 0.19 | – | –
ETYLQNHFAEEERSKYDYLMILRR [TENT5C] | 2.84 ± 0.1 | 3.13 ± 0.23 | – | –
ASSVESTLPVLEASSWKKQVSHDF [FBXO34] | 3.56 ± 0.49 | 3.67 ± 0.62 | – | –
GSDLGGPLPTDPMLGLALGGLVVS [TSPAN10] | 2.88 ± 0.2 | 2.66 ± 0.19 | – | –
FPREHQFFEDGDVQRHLYLQDVIM [ZNF511] | 2.45 ± 0.085 | 2.78 ± 0.28 | – | –
YMYLVIEELTREAVAVDVAVPKRL [HAGHL] | 2.57 ± 0.57 | 2.71 ± 0.41 | – | –
LTEDYFPSVPDNAELVLLTLGQAW [DFFB] | 2.34 ± 0.23 | 2.34 ± 0.22 | – | –
LSAEPGWQAKREEEEEEEEEAEAG [CHGA] | 5.62 ± 0.081 | 5.4 ± 0.59 | – | –
PSRQYATLDVYNPFETREPPPAYE [SCAMP3] | 3.95 ± 0.27 | 4.14 ± 0.21 | – | –
HGLWDSLVYDVEVKSHLLDYVMTT [TRIP13] | 2.28 ± 0.32 | 2.2 ± 0.34 | – | –
TMDNKKGRRYEAVKWMVVFAIGVC [CLCN6] | 2.58 ± 0.35 | 2.64 ± 0.82 | – | –
NIYENGDVCISILHPPVDDPQSGE [UBE2R2] | 4.37 ± 0.1 | 4.55 ± 0.087 | – | –
NVLHGYPKDIYSSFGFPRTVKHID [MMP1] | 2.63 ± 0.098 | 2.74 ± 0.24 | – | –
GHGEPDVLKDELQLYGDAPGEVVP [TMEM40] | 5.36 ± 0.07 | 5.35 ± 0.23 | – | –
DPPSSSEECPAHLLEDPLCADVIL [RHOBTB2] | 4.89 ± 0.21 | 5.11 ± 0.23 | – | –
DQTKSIVEKIQAKLPGIAKKKAE [RTN3] | – | – | 5.46 ± 0.17 | 5.56 ± 0.22
LHELSSRVEASHLTTSQERELGIR [FBF1] | 4.46 ± 0.17 | 4.36 ± 0.25 | – | –
MTEPWLALGTSWTLPLQDRELGPE [CABP4] | 3.54 ± 0.39 | 4.16 ± 0.2 | – | –

Sequence | protein stability index [1] | protein stability index [2] | protein stability index (treatment: DMSO, c terminus: native) | protein stability index (treatment: MLN4924 1 uM, 8 h, c terminus: native)
ENTLLNSQMVSTDNSLSSQNYISQ [MIA2] | 4.05 ± 0.23 | 4.03 ± 0.17 | – | –
RAVRDRNLLRDDRVLQNLLTIEER [CCND2] | 3.91 ± 0.21 | 3.89 ± 0.17 | – | –
ISFDRYYKIVKPLWTSFIQSVSYS [P2RY14] | 3.63 ± 0.89 | 2.08 ± 0.7 | – | –
LPHDFIDSLEKTDDDKYKITLKYP [NLN] | 3.7 ± 0.3 | 3.13 ± 0.089 | – | –
KAGFTASPFTNLLNGSSQPTTRNY [CDC14A] | 3.38 ± 0.19 | 3.39 ± 0.18 | – | –
VDPIGHVYIFATCLGLSYDGLLGD [MAGEA6] | 3.17 ± 0.45 | 3.1 ± 0.29 | – | –
KKIYEAKRFTDAGFEHYDLFFIDG [CDC14A] | 2.36 ± 0.29 | 2.34 ± 0.23 | – | –
GIELMEVDPIGHLYIFATCLGLSY [MAGEA3] | 2.72 ± 0.9 | 2.85 ± 1.2 | – | –
RNDKIKHVQNQVDEVIDVMQENIT [VAMP4] | 4.51 ± 0.33 | 4.4 ± 0.98 | – | –
EANSSNSQKNEKALTNIQNCMAEK [C8orf76] | 4.96 ± 0.38 | 4.58 ± 0.37 | – | –
LMQLQDIQYLTENIWASQSVLSAC [IQUB] | 2.67 ± 0.42 | 2.24 ± 0.37 | – | –
KHSSTSSRIAKGGVDHTKMSLHGA [BTBD10] | 3.66 ± 0.19 | 3.79 ± 0.19 | – | –
VAWNGPRMGDADYLAAWHRLVLPI [HDAC6] | 2.52 ± 0.52 | 2.26 ± 0.25 | – | –
IPVLMALSWFILHARYRVIHFIAV [SLC35F2] | 3.09 ± 0.43 | 3.25 ± 0.093 | – | –
LVTLPVSFAQLKNLKWLDLKDNPL [LRRC59] | 2.29 ± 0.082 | 2.31 ± 0.23 | – | –
PKEEQQQALEQFAAAAAHSTPVRR [EPB41L3] | 5.37 ± 0.087 | 5.22 ± 0.33 | – | –
QLLWREFFYTAATNNPRFDKMEGN [CRY1] | 2.02 ± 0.23 | 2 ± 0.38 | – | –
LFPVFLATDYLRYKPVVLLQGLSL [SLC19A2] | 2.88 ± 0.41 | 2.84 ± 0.72 | – | –
SLGKARTAQVQKDARIGEAEAKRD [FLOT1] | 5.31 ± 0.21 | 5.12 ± 0.36 | – | –
KSVQCGTWTKHAEGGIFTSPNYPS [NETO1] | 2.88 ± 0.19 | 2.89 ± 0.24 | – | –
KSHVYMAWNIPMSNPGVDFGDVSE [GALNT9] | 2.65 ± 0.26 | 2.79 ± 0.15 | – | –
DDVRLLCHLTPSIYTEFPDETLRS [INTS3] | 3.41 ± 0.2 | 3.49 ± 0.54 | – | –
ANDGDYWRLLNPGEYVVTAKAEGF [CPXM2] | 2.81 ± 0.35 | 2.87 ± 0.081 | – | –

Sequence | protein stability index [1] | protein stability index [2] | protein stability index (treatment: DMSO, c terminus: native) | protein stability index (treatment: MLN4924 1 uM, 8 h, c terminus: native)
KERDLRDVGDWRKNIEEKSGMEGR [TNNI2] | 5.07 ± 0.25 | 5.15 ± 0.3 | – | –
DDAVAGDFALINKLDIQCDLKTLS [ATE1] | 4.18 ± 0.34 | 4 ± 0.17 | – | –
PDFCHKFLPGYVGGIQEGAVTPAG [DHCR7] | 3.57 ± 0.32 | 3.6 ± 0.11 | – | –
RLATVHMSRMINKYKRRRFQKTKN [CLPTM1] | 3.16 ± 0.36 | 3.54 ± 0.49 | – | –
SDDNAKLPCFNGRVVSWLVSAEGS [DVL3] | 3.07 ± 0.19 | 3.06 ± 0.26 | – | –
YLVENNANISIANKYDNTCLMIAA [FEM1B] | 2.38 ± 0.1 | 2.21 ± 0.22 | – | –
SRAALVCRKWNQMMYSAELWRYRT [FBXO39] | 2.45 ± 0.56 | 2.15 ± 0.25 | – | –
KVVEAHKIVLCAVSHVFMLLFNVK [RHOBTB3] | 2.81 ± 0.64 | 3.07 ± 0.46 | – | –
RLALEKVPKVGQRFNRIGLPPKVG [PI4K2A] | 3.23 ± 0.3 | 3.21 ± 0.097 | – | –
LRGLCRPLRPLLGFRESDSAKPAS [C6orf223] | 3.31 ± 0.32 | 3.44 ± 0.23 | – | –
DPSTGCYMYYFQYLSKTYCVDATR [KMT5A] | 2.25 ± 0.34 | 2.18 ± 0.61 | – | –
GTLLFYIGGHLVRDNDHPDHSSRE [FUT8] | 2.3 ± 0.59 | 2.55 ± 0.58 | – | –
RYQKYGYIGTHEYPHFSHRPSTLQ [OAS1] | 2.18 ± 0.14 | 2.45 ± 0.15 | – | –
LPAEVAGLSQVLLRGGGQVLLGWT [POMT2] | 2.26 ± 0.54 | 2.26 ± 0.14 | – | –
TEMAASSQGNFEGNFESLDLAEFA [FUNDC2] | 5.21 ± 0.42 | 5.1 ± 0.44 | – | –
KVFLHERELWLKFHEVGTEMIITK [TBX5] | 2.12 ± 0.19 | 2.33 ± 0.44 | – | –
LFIQKEEQLQQILKRKNKQAFLDE [MNAT1] | 2.5 ± 0.47 | 2.61 ± 0.32 | – | –
LLPEDMALRNLPPLRAAHRRFNFD [SMG5] | 3.06 ± 0.38 | 3.2 ± 0.33 | – | –
AVEAGQEECAKWLLLNNANPNLSN [RIPK4] | 3.82 ± 0.25 | 4.26 ± 0.47 | – | –
YVINWFMSFGPEIKLNTSQQGRNQ [FAM104B] | 2.67 ± 1.7 | 2.53 ± 0.71 | – | –
MDLLTQSLGVDTLPPPDPNPPRAE [APBB1IP] | 4.85 ± 0.2 | 4.87 ± 0.14 | – | –
KITKVMDVRLDREHRVAGIFPRLS [CLPTM1] | 2.69 ± 0.17 | 2.7 ± 0.36 | – | –
KDYYPINESLASLPLRVSFCPLSL [CLPTM1] | 2.16 ± 0.28 | 2.15 ± 0.096 | – | –

Sequence | protein stability index [1] | protein stability index [2] | protein stability index (treatment: DMSO, c terminus: native) | protein stability index (treatment: MLN4924 1 uM, 8 h, c terminus: native)
ISHQGDYAVLAAEPELQVGIDIMK [AASDHPPT] | 3.42 ± 0.21 | 3.52 ± 0.3 | – | –
NNWYYISPRLTFQCLEDLVNHYSE [SLA] | 2.44 ± 0.35 | 2.23 ± 0.38 | – | –
YGFYLRAGSEQKGQIIKDIDSGSP [PDZK1] | 3.2 ± 0.17 | 3.17 ± 0.36 | – | –
ASLNHLDSHILLCLMGLAETPGCA [DCAF4] | 3.14 ± 0.58 | 2.82 ± 0.34 | – | –
DLPKAKTRAADLLVNPLDPRNADK [SRPK2] | 4.85 ± 0.24 | 5 ± 0.29 | – | –
LQTSLENGTRVQEEPELVFTLGDC [FKBP8] | 4.34 ± 0.2 | 4.77 ± 0.25 | – | –
LDKLRNEWASHTAALTNKHSQELT [SASS6] | 3.85 ± 0.33 | 3.83 ± 0.3 | – | –
KPPPRKHTRSWAVLKLLLLLLLFG [LRRC59] | 2.09 ± 0.3 | 2.02 ± 0.26 | – | –
LFPGRVSVDLMLGLPAQQVGPWLG [RSAD1] | 2.41 ± 0.86 | 2.32 ± 0.9 | – | –
RIIDKPRVIEVLPRGATAAVLAPD [SEPHS2] | 3.88 ± 0.23 | 4.08 ± 0.068 | – | –
TGLELIAEESNPPLQDFPNSISSD [MIA2] | 5.2 ± 0.097 | 5.33 ± 0.25 | – | –
DSRIRFGFLTVTNLGVENMNHYKK [PTPN9] | 2.53 ± 0.19 | 2.7 ± 0.31 | – | –
PHEDHVFLVANFSQIETLTSVFQK [MATN2] | 2.25 ± 0.24 | 2.35 ± 0.16 | – | –
CLDSPGPLDSKENLENPMRRIHSL [CDC25A] | 4.27 ± 0.19 | 3.91 ± 0.26 | – | –
IAFDGVVGSGGRRDSTARRPRPQG [RTN2] | 4.29 ± 0.17 | 4.26 ± 0.22 | – | –
FRDPIWSTWALYGRAVDQDKVLRF [MYORG] | 2.12 ± 0.39 | 2.11 ± 0.15 | – | –
RLSKELLAEYQDLTFLTKQEILLA [CIB1] | 2.16 ± 0.17 | 2.11 ± 0.22 | – | –
EPKLHTPMYFFLGNLSVLDVGCIS [OR3A1] | 2.7 ± 0.83 | 2.95 ± 0.71 | – | –
VKLGPALTPHIVQYQANKVTHTLT [PPEF2] | 2.35 ± 0.34 | 2.2 ± 0.42 | – | –
DEMQEVPNRVLAPEQSLKKTKTSE [SPANXN3] | 5.57 ± 0.2 | 5.59 ± 0.24 | – | –
